From patent US20210380675A1 (Kyowa Kirin, published 2021)
Numbering of substitutions follows the chain as printed.

T1: cynomolgus IL-36γ, truncated (cynomolgus macaque (Macaca fascicularis), UniProt Q9NZH8 18-167 (human entry), limits assumed)
T1 chain: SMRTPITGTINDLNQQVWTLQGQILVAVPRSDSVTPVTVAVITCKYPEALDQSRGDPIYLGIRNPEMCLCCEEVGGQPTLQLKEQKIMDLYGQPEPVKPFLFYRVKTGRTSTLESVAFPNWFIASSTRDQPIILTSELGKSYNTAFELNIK

T2: human IL-36γ, truncated (human, UniProt Q9NZH8 18-169)
T2 sequence: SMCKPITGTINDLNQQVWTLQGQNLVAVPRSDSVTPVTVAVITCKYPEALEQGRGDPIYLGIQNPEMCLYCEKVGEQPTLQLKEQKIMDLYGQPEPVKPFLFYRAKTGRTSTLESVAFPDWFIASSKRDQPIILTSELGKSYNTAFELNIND

T3: human IL-36α(R12), truncated (human, UniProt Q9UHA7 6-158)
T3 chain: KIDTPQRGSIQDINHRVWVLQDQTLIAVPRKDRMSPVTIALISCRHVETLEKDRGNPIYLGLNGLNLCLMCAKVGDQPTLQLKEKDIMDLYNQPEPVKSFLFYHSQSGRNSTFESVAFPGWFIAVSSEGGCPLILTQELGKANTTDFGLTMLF

T4: cynomolgus IL-36α, truncated (cynomolgus macaque (Macaca fascicularis), UniProt Q9UHA7 14-158 (human entry), limits assumed)
T4 chain: T3 chain with I2S, D3E, T4M, R7P, G8V, T24I, M34V, A40S, V74A

T5: human IL-36α(Q12), truncated (human, UniProt Q9UHA7 6-158)
T5 construct: Untagged after removal of the His-SUMO tag
T5 sequence: T3 chain with R7Q

B1: 144L124B (antibody, V domains shown)
VH: EVQLQQSGAELVKPGASVKLSCTASGFNIKDTYIYWVKQRPEQGLEWIGRIDPANGYTRYDPKFQGKATMTADTSSNTAYLQLSSLTSEDTAVYYCARYEYYDSSFYFDYWGQGTTLTVSS
VL: QAVVTQESALTTSPGETVTLTCRSSTGAVTTSNYANWVQEKPDHLFTGLIGGTNNRAPGVPARFSGSLIGDKAALTITGAQTEDEAIYFCALWYSNHLVFGGGTKLTVL
notes: Mouse monoclonal from hybridoma; mouse IgG heavy and lambda light chain; Same VH and VL as 144L180A
B2: 144L180A (antibody, V domains shown)
VH: B1 VH
VL: B1 VL
B3: chimeric m/h 144D464A (antibody, human IgG1, lambda, V domains shown)
VH: EVQLQQSGAELVKPGASVRLSCTASGFNIKDTYIHWVKQRPEQGLEWIGRIDPAIGTTRYDPKFQGKATITTDTSSDTVHLQFSSLTSEDTAVYYCARLHYFGNNFFFDYWGQGTTLTVSS
VL: QAVVTQESALTTSPGEAVTLTCRSSSGAVTTSNYANWVQEKPDHLFAGLIGGTNDRAPGVPARFSGSLIGDKAALTITGAQTEDEAIYFCALWFSNHWVFGGGTKLTVLG
notes: Mouse VH/VL joined to human IgG1 constant and human Ig lambda (IGLC2) constant; also called chimeric mouse/human (m/h) 144D464A antibody

How the values were obtained:
[1] = molecular target: T1, cynomolgus IL-36γ, truncated; test: cell-based or functional assay
[2] = molecular target: T2, human IL-36γ, truncated; test: cell-based or functional assay
[3] = molecular target: T3, human IL-36α(R12), truncated; test: cell-based or functional assay
[4] = molecular target: T4, cynomolgus IL-36α, truncated; test: cell-based or functional assay
[5] = molecular target: T3, human IL-36α(R12), truncated; test: cell-based or functional assay
[6] = molecular target: T2, human IL-36γ, truncated; test: cell-based or functional assay; remark: listed apart in the source
[7] = molecular target: T3, human IL-36α(R12), truncated; test: cell-based or functional assay
[8] = molecular target: T2, human IL-36γ, truncated; test: cell-based or functional assay; remark: listed apart in the source
[9] = molecular target: T1, cynomolgus IL-36γ, truncated; test: SPR, Biacore T200, antibody on chip, IL-36 as analyte, 1:1 Langmuir fit
Procedure: (§1) Antibodies were further tested for their binding to recombinant human or cynomolgus IL36α, IL-36γ in Biacore assays. In order to kinetically analyze the binding activity of the IL-36α and IL-36γ dual antagonist antibodies, the binding activity to human and cynomolgus IL-36α and IL-36γ was measured by surface plasmon resonance method (SPR). All of the following manipulations were carried out using a Biacore T200 (GE Healthcare Life Sciences, Pittsburgh, Pa.).
(§2) To determine antibody affinity to human and cynomolgus IL36, recombinant antibodies were immobilized on a CM5 sensor chip (cat# BR100012, GE Healthcare Life Sciences, Pittsburgh, Pa.) by an amine coupling chemistry. In particular, the kinetic assay was carried out by immobilizing on the chip approximately 2000 RU of recombinant antibody. Thereafter, recombinant human or cynomolgus IL36 proteins, serially diluted from a high concentration, were allowed to run at a flow rate of 30 μL/min onto the chip for 420 seconds. The dissociation time was 3600 seconds and the binding curves were measured at 25° C. Regeneration was performed with 10 mM glycine pH 1.5 for 30s. Alternatively, the analytes were injected with increasing concentrations in a single cycle, the surface not being regenerated between injections, using a method referred to as “single cycle kinetics.” In particular, either anti-human or anti-mouse Fc specific antibodies were immobilized on a CM5 sensor chip (cat# BR100012, GE Healthcare Life Sciences, Pittsburgh, Pa.) by an amine coupling chemistry. Thereafter, IL-36α and IL-36γ dual antagonist mouse/human chimeric or mouse antibodies were captured at approximately 200 RUs, followed by injections of increasing concentrations of recombinant human and cynomolgus IL36 proteins. The association time was 300 seconds, and the final dissociation time was 1200 seconds. At the end of the analyte injections, the surface was regenerated with either 3M MgCl₂ (anti-human Fc capture antibody) for 30 s or 10 mM glycine-HCl pH 1.7 for 180 s (anti-mouse IgG capture antibody).
(§3) The raw data were double referenced by subtraction of the signals from a reference flow cell without immobilized ligand and a buffer blank. The sensorgram corresponding to each concentration was obtained.

[10] = molecular target: T3, human IL-36α(R12), truncated; test: as above
Procedure: as §1, §2, §3

[11] = molecular target: T4, cynomolgus IL-36α, truncated; test: as above
Procedure: as §1, §2, §3

[12] = molecular target: T2, human IL-36γ, truncated; test: as above
Procedure: as §1, §2, §3

[13] = molecular target: T5, human IL-36α(Q12), truncated; test: as above
Procedure: as §1, §2, §3

Binder	IC50 of IL-8 secretion, HaCaT, 10 nM cynomolgus IL-36γ, FIG. 2D [1] [nM]	IC50 of IL-8 secretion, HaCaT, 10 nM human IL-36γ, FIG. 1F [2] [nM]	IC50 of IL-8 secretion, HaCaT, 10 nM human IL-36α, FIG. 1C [3] [nM]	IC50 of IL-8 secretion, HaCaT, 10 nM cynomolgus IL-36α, FIG. 2B [4] [nM]	IC50 of IL-8 secretion, primary human keratinocytes, 6.25 nM human IL-36α, FIG. 4A [5] [nM]	IC50 of IL-8 secretion, primary human keratinocytes, 8.4 nM human IL-36γ, FIG. 4C [6] [nM]	IC50 of IL-8 secretion, primary human monocytes, 20 nM human IL-36α, FIG. 5A [7] [nM]	IC50 of IL-8 secretion, primary human monocytes, 6 nM human IL-36γ, FIG. 5C [8] [nM]	IC50 of IL-8 secretion, primary human monocytes, 50 nM human IL-36γ, FIG. 5D [8] [nM]	Kd [9] [nM]	koff [9] [s⁻¹]	kon [9] [M⁻¹ s⁻¹]	Kd [10] [nM]	koff [10] [s⁻¹]	kon [10] [M⁻¹ s⁻¹]	Kd [11] [nM]	koff [11] [s⁻¹]	kon [11] [M⁻¹ s⁻¹]	Kd [12] [nM]	koff [12] [s⁻¹]	also measured
B1	28.3	15.8	42	14.2	11.1	15.8	44.2	19.1	41.2	0.824	0.000488	593000	3.56	0.0417	1.17e+07	2.54	0.0192	7.56e+06	0.833	0.000691	kon [12]: 829000 M⁻¹ s⁻¹
B2	30.3	21.3	22.5	15.7			96.9	5.49	50.9												
B3	13.2	9.54	7.77	4.91	2.32	12.8	7.15		33.3	1.84	0.000342	186000	2.18	0.000309	142000	1.64	0.000267	163000	1.48	0.000218	IC50 of IL-8 secretion, HaCaT, 10 nM human IL-36γ, FIG. 1D [2]: 6.43 nM; IC50 of IL-8 secretion, HaCaT, 10 nM human IL-36α, FIG. 1A [3]: 3.84 nM; IC50 of IL-8 secretion, primary human keratinocytes, 8 nM human IL-36α, FIG. 4B [5]: 12.3 nM; IC50 of IL-8 secretion, primary human keratinocytes, 8.4 nM human IL-36γ, FIG. 4D [6]: 10 nM; IC50 of IL-8 secretion, primary human monocytes, 40 nM human IL-36α, FIG. 5B [7]: 22.4 nM; Kd [13]: 1.08 nM; koff [13]: 0.000391 s⁻¹; kon [13]: 361000 M⁻¹ s⁻¹; kon [12]: 147000 M⁻¹ s⁻¹
